The source of these data is patent US20250296995A1.

The target of the first assay is recombinant Plasmodium falciparum circumsporozoite protein (CSP) (Plasmodium falciparum) (UniProt P19597). In words: cell-based or functional assay.
Chain of recombinant Plasmodium falciparum circumsporozoite protein (CSP) (Plasmodium falciparum) (P19597 21-375 limits assumed): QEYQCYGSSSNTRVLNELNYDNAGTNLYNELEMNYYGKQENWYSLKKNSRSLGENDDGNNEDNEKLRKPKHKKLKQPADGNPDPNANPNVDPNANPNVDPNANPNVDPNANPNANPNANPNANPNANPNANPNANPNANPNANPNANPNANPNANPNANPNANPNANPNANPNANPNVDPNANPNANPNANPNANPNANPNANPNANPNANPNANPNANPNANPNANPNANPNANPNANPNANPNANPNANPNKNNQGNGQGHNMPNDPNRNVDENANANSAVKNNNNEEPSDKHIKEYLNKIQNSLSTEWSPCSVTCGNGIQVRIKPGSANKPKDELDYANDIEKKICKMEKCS
Consider 317 DE-LS (antibody), for which the Geo Mean EC50 (ug/ml), ADNKA, Donor 1 turned out to be 0.0027 µg/mL; the Geo Mean EC50 (ug/ml), ADNKA, Donor 2 came to 0.0022 µg/mL; the Geo Mean EC50 (ug/ml), ADNKA, Donor 3 amounted to 0.0276 µg/mL; the Geo Mean EC50 (ug/ml), ADNKA, Donor 4 turned out to be 0.0111 µg/mL.

On to 317 LS (antibody), for which the Geo Mean EC50 (ug/ml), ADNKA, Donor 1 came to 0.0567 µg/mL; the Geo Mean EC50 (ug/ml), ADNKA, Donor 2 turned out to be 0.231 µg/mL; the Geo Mean EC50 (ug/ml), ADNKA, Donor 3 was determined as 0.151 µg/mL; the Geo Mean EC50 (ug/ml), ADNKA, Donor 4 came to 0.0709 µg/mL.

Turning to CIS43 LS (antibody), the Geo Mean EC50 (ug/ml), ADNKA, Donor 1 was 0.0277 µg/mL; the Geo Mean EC50 (ug/ml), ADNKA, Donor 2 came out at 0.143 µg/mL; the Geo Mean EC50 (ug/ml), ADNKA, Donor 3 amounted to 0.104 µg/mL; the Geo Mean EC50 (ug/ml), ADNKA, Donor 4 is 0.0643 µg/mL.

On to L9 LS (antibody), for which the Geo Mean EC50 (ug/ml), ADNKA, Donor 1 turned out to be 0.038 µg/mL; the Geo Mean EC50 (ug/ml), ADNKA, Donor 2 came to 0.514 µg/mL; the Geo Mean EC50 (ug/ml), ADNKA, Donor 3 stood at 0.0887 µg/mL; the Geo Mean EC50 (ug/ml), ADNKA, Donor 4 came to 0.0286 µg/mL.

Another assay shares this target. In words: SPR, recombinant CSP; geometric mean, n=2. For orientation: Surface plasmon resonance follows binding to a sensor surface in real time, without labels.
For orientation: Kd means a measure of binding affinity in units of concentration. On to L9 (antibody), for which the dissociation constant (Kd) was found to be 0.04 nM.

The target in the next assay is human FcRn (human) (UniProt P55899). In words: SPR, human FcRn, pH 6.0.
Chain of human FcRn (human) (P55899 24-297 limits assumed, form in doubt, chain 1 of 2): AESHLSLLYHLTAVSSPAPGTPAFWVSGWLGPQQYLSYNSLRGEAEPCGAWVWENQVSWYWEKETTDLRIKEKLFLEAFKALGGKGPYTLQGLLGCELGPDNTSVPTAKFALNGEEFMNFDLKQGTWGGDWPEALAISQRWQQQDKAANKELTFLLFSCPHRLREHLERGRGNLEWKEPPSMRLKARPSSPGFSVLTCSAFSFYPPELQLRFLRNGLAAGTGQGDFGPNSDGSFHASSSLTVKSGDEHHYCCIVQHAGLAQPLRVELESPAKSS
Chain of human FcRn (human) (chain, as listed by the source limits assumed, form in doubt, chain 2 of 2): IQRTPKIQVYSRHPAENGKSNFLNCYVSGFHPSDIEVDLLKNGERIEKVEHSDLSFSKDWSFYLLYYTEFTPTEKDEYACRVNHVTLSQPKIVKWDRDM
The substance L9 (antibody) yielded a Kd of 174 nM.

With hIgG1 WT control (antibody), the Kd came out at 102 nM.
